According to the RNAGym collection of RNA variant scans (doi:10.1073/pnas.2313332121):

B1: TPR t1 (parent)
chain: GACCAAUCUGCCCUCAGAGCUCGAGAACAUCUUCGGAUGCAGAGGAGGCAGGCUUCGGUGGCGCGAUAGCGCCAACGUCCUCAACCUCCAAUGCAUCCCACCACAUGAUGAUGCCUGAAGAGCCUUGGUUUUUUG

Variants of: B1
Assay: polymerase ribozyme fitness, log enrichment relative to wild type (log ratio); higher = more active; in vitro selection for triplet polymerase activity
Outline: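 Genotype fitness is the logarithm of its enrichment divided by wild-type enrichment, using inverse-variance-weighted averages of replicates. That logarithm is base 2. Enrichment was measured by Illumina sequencing of input and output libraries from one triplicate in vitro selection round, with frozen incubation at −7 °C, on PCR-built, transcribed mutant libraries of each subunit of a heterodimeric triplet polymerase ribozyme, retaining genotypes with ≥10 input reads and ≥1 read per output.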

Variant	polymerase ribozyme fitness (log ratio)
GACCAAUCUGCCCUCAGAGCUCGAGAACAUGUUCGGAUGCAGAGGAGGCAGGCUUCGGUGGCGCGAUAGCGUCAACGUCCUCAACCUCCAAUGCCUCCCACCACAUGAUGAUACCUGAAGAGCCUUGGUUUUUUG	-6.94
GACCAAUCUGCCCUCAGAGCUCGAGAACAUGUUCGGAUGCAGAGGAGGCAGGCUUCGGUGUCGCGAUAGCGCCAACGUCCUCAACCUCCAAUGCAUCCCACCACAUGAUGAUGCCUGAAGAGCCUUGGUUUUUUG	-6.02
GACCAAUCUGCCCUCAGAGCUCGAGAACAUUUUCGGGUGCAGAGGAGGCAGGCUUCGGUGGCGCGAUAGCGCCAACGUCCUCAACCUCCAAUGCAUCCCACCACAUGAUGAUGCCUGAAGAGCCUUGGUUUUUUG	-3.78
GACCAAUCUGCCCUCAGAGCUCGAGAACAUGUUCGGAUGCAGAGGAGGCAGGCUUCGGUGGCGCGAUAGCGCCAACGUCCUCAACCUCCAAUGCAUCCCACCACAUGAUGAUGCCUGAAGAGCAUUGGGUUUUUG	-6.34
GACCAAUCUGCCCUCAGAGCUCGAGAACAUGUUCGGAUGCAGAGGAGGCAGGCUUCGGUGGCGCGAUAUCGCCAACGUCCUCAACCUCCAGUGCAUCCCACCACAUGAUGAUGCCUGAAAAGCCUUGGAUUUUUG	-6.61
GACCAAUCUGCCCUCAGAGCUCGAGAACAUGUUCGGAGGCAGAGGAGGCAUCCUUCGGUGGCGCGAUAGCGCCAACGUCCUCAACCUCCAAUGGAUCCCACCACAUGAUGAUGCCUGAAUAGCCUUGGUUUUUUG	-6.47
GACCAAUCUGCCCUCAGAGCUCGAGAACAUGUUCGGAUGCAGAGGAGGCAGGCUUCGUUGAGGCGAUAGCGCCAACGUCCUCUACCUCCAAUGCAUCCCACCACAUGAAGAUGCCUGAAGAGCUUUGGUUUUUUG	-6.38
GACCAAUCUGCCCUCAGAGCUCGAGAACAUGUUCGGAUGCAGAGGAGGCAGGCUUCGGUGGCGCGAUAGCUCCAACGUCCUCAACCUCCAAUGGAUCCCACCACAUGAUGAUGCCUGAAGGGCCUUGGUUUCUUG	-7.12
GACCAAUCUGCCCUCAGAGCUCGAGAACAUGUUCGGAUGCAGAGCAGGCAGGCUUCGGUGGCGGGAUAGCGCCAACGUCCUCAACCUCCAAUGCAUCCCACCACAUGAUGAUUCCUGAAGAGCCUUGGUUUUUUG	-5.01
GACCAAUCUGCCCUCAGAGCUCGAGAACAUGUUCGGAUGCAGAGGAGUCAGGCUUCGGUGGCGCGAUAGCGUCAACGUCCUCAACGUCCAAUGCAUCCCCCCACAUGAUGAUGCCUGAACAGCCUUGGUUUUUUG	-7.02
GACCAAUCUGCCCUCAGAGCUCGAGAACAUGUUCGGAUGCAGAGGAGGCAGGCUUCGGUGGCGCGAUAGCGCCAACGUCGUCAACCUCCAAUGCAUCCCUGCUCAUGAUGAUGCCUGAACAGCCUUGGUUUUUUG	-7.23
GACCAAUCUGCCCUCAGAGCUCGAGAACAUGUUCGGAUGCAUAGGAGGCAGGCUUCGGUGGCGCGAUAGCGCCAACGUCCUCAACCUCCAAUGCAUCCCACCACAUGAUGAUUCCUGAAGAGCCUUGGUUUUUUG	-5.66
GACCAAUCUGCCCUCAGAGCUCGAGAACAUGUUCGGAUGCACAGGAGGCAGGCUUCGGUGGCGCGAUAGCGCCAACGUCCUCAACCUCCAAUGCAUCCCACCACAUGAUGUUGCCUGAAGAGCCUUGGUUUUUUG	-6.49
GACCAAUCUGCCCUCAGAGCUCGAGAACAUGUUCGGAUGCAGAGGAGGCAGGCUUCGGUGGCGCGAUAGCGCCAACGUCCUCAACCUCCAAUGCAUCCCACCACAUGAUGAUGCCUGAAGAACCUUGGUUUUUUG	-5.66
GACCAAUCUGCCCUCAGAGCUCGAGAACAUGUUCGGAUGCAGAGGAGGCAGGCUUCGGUGGCGCGAUAGAGCCAACGUCCUCAACCUCCAAUGCAUCCCACCACAUGAUGAUGCCUGAAGAGCCUUGGUUUUUUG	-7.42
GACCAAUCUGCCCUCAGAGCUCGAGAACAUGUUCGGAUGCAGAGGAGGCAGGCUUCGGUGGCGCGAUAGCGCAAACGUCCUCAACCUCCAAUGCAUCCCACCACAUGAUGAUGCCUGAAGAGCCUUGGUUUUUUG	-6.15
GACCAAUCUGCCCUCAGAGCUCGAGAACAUGUUCGGAUGCAGAGGAGGCAGGCUUCGGUGGCGCGAUAGCGGCAACGUCCUCAACCUCCAAUGCAUCCCACCACAUGAUGAUGCCUGAAGAGCCUUGGUUUUUUG	-6.27
GACCAAUCUGCCCUCAGAGCUCGAGAACAUGUUCGGAUGCAGAGGAGGCAGGCUCCGGUAGCGCGAUAGCGCCAACGUCCUCAACCUCCAAUGCAUCCCACCACAUGAUGAUGCCCGAAGAGCCUUGGUUUUUUG	-6.66
GACCAAUCUGCCCUCAGAGCUCGAGAACAUGUUCGUAUGCAGAGGAGGUAGGCUUCGGUGGCGCGAUAGCGCCAACGUCCUCAACCUCCAAUGCAUCCCACCACAUGAUGAGGCCUGAAGAGCCUUGGUUUUUUG	-6.99
GACCAAUCUGCCCUCAGAGCUCGAGAACAUGUUCGGAUGCAGAGGAGGCAGGCUUCGGUGGCGCGAUAGCGCCAACGUCCUCAACCUCCAAUGCAUCCCACCACAUGAUGAUGACUGAAGAGCCUUGGUUUUUUG	-6.73
GACCAAUCUGCCCUCAGAGCUCGAGAACAUGUUCGGAUGCAGAGGAGGCAGUCUUCGGUGGCGCGAUAGCGCCAACAUCCUCAACCUCCAAUGCAUCCCACCACAUGAUGAUGCCUUAAGAGCCUUGGUUUUUUG	-6.19
